This passage reports protein stability index results from the supplement of paper PMC10567573.

B1: YPEL3 (parent)
chain: SKPKTFQAYLDDCHRRYSCAHCRA
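Note: lentivirally expressed fusions sorted by FACS into six bins by GFP to DsRed ratio, PSI derived from sequencing read proportions per bin multiplied by bin number.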

Variants of B1 are the subject of this series. The experiment in a line: protein stability index of a GFP-peptide fusion (GPS, HEK-293T) (PSI 1-6); higher = more stable. Conditions: c terminus: a fixed tail appended.
For the variant SKPKTFQAYLDDCHRRMSCAHCRA [Y17M], the protein stability index came out at 1.64. To SKPKTFQAYLDDCHRRRSCAHCRA [Y17R] belongs 2.79; to SKPKTFQAYLDDCHRRTSCAHCRA [Y17T], 2.37.

For SKPKTFQAYLDDCHRRPSCAHCRA [Y17P], the protein stability index worked out at 1.93. With SKPKTFQAYLDDCHRRESCAHCRA [Y17E], the protein stability index turned out to be 2.66.

As to SKPKTFQAYLDDCHRRVSCAHCRA [Y17V], the protein stability index stood at 1.39. With SKPKTFQAYLDDCHRRASCAHCRA [Y17A] the figure was 1.99; with SKPKTFQAYLDDCHRRKSCAHCRA [Y17K], 3.43. With SKPKTFQAYLDDCHRRISCAHCRA [Y17I] the figure was 2.13; with SKPKTFQAYLDDCHRRCSCAHCRA [Y17C], 3.26.

As to SKPKTFQAYLDDCHRRDSCAHCRA [Y17D], the protein stability index was 2.44. To SKPKTFQAYLDDCHRRLSCAHCRA [Y17L] belongs 2.

In the case of SKPKTFQAYLDDCHRRFSCAHCRA [Y17F], the protein stability index is 3.01.

Consider SKPKTFQAYLDDCHRRSSCAHCRA [Y17S], for which the protein stability index stood at 1.89. With SKPKTFQAYLDDCHRRHSCAHCRA [Y17H] the figure was 2.07; with SKPKTFQAYLDDCHRRNSCAHCRA [Y17N], 1.8; with SKPKTFQAYLDDCHRRGSCAHCRA [Y17G], 2.02. With SKPKTFQAYLDDCHRRYSCIHCRA [A20I] the figure was 1.89; with SKPKTFQAYLDDCHRRYSCPHCRA [A20P], 1.92. To SKPKTFQAYLDDCHRRYSCFHCRA [A20F] belongs 2.22.

With SKPKTFQAYLDDCHRRYSCDHCRA [A20D], the protein stability index was found to be 1.1. To SKPKTFQAYLDDCHRRYSCLHCRA [A20L] belongs 1.64; to SKPKTFQAYLDDCHRRYSCNHCRA [A20N], 2.92.

With SKPKTFQAYLDDCHRRYSCKHCRA [A20K], the protein stability index is 2.95. To SKPKTFQAYLDDCHRRYSCHHCRA [A20H] belongs 2.04.

As for SKPKTFQAYLDDCHRRYSCCHCRA [A20C], the protein stability index turned out to be 1.31. To SKPKTFQAYLDDCHRRYSCQHCRA [A20Q] belongs 1.71; to SKPKTFQAYLDDCHRRYSCSHCRA [A20S], 1.46. Turning to SKPKTFQAYLDDCHRRYSCTHCRA [A20T], the protein stability index came to 2.29. Take SKPKTFQAYLDDCHRRYSCEHCRA [A20E]: the protein stability index came out at 1.46. With SKPKTFQAYLDDCHRRYSCRHCRA [A20R], the protein stability index turned out to be 1.72.

SKPKTFQAYLDDCHRRYSRAHCRA [C19R]: the protein stability index came to 2.04. To SKPKTFQAYLDDCHRRYSFAHCRA [C19F] belongs 1.53.

As to SKPKTFQAYLDDCHRRYSQAHCRA [C19Q], the protein stability index was determined as 2.53. To SKPKTFQAYLDDCHRRYSAAHCRA [C19A] belongs 2.51. With SKPKTFQAYLDDCHRRYSYAHCRA [C19Y] the figure was 2.44; with SKPKTFQAYLDDCHRRYSTAHCRA [C19T], 2.44; with SKPKTFQAYLDDCHRRYSDAHCRA [C19D], 3.27. As for SKPKTFQAYLDDCHRRYSEAHCRA [C19E], the protein stability index was determined as 3.18. With SKPKTFQAYLDDCHRRYSHAHCRA [C19H] the figure was 2.96; with SKPKTFQAYLDDCHRRYSNAHCRA [C19N], 3.42. To SKPKTFQAYLDDCHRRYSKAHCRA [C19K] belongs 2.64; to SKPKTFQAYLDDCHRRYSMAHCRA [C19M], 1.63; to SKPKTFQAYLDDCHRRYSIAHCRA [C19I], 2.33. With SKPKTFQAYLDDCHRRYSSAHCRA [C19S] the figure was 2.87.

Turning to SKPKTFQAYLDDCHRRYSVAHCRA [C19V], the protein stability index is 2.41. To SKPKTFQAYLDDCHRRYSLAHCRA [C19L] belongs 2.08; to SKPKTFQAYLDDCHRRYSWAHCRA [C19W], 1.66. To SKPKTFQAYLDDCHRRYSGAHCRA [C19G] belongs 2.68; to SKPKTFQAYLDDCHRRYSPAHCRA [C19P], 2.85; to SKPKTFQAYLDDCHRRYKCAHCRA [S18K], 2.01. For SKPKTFQAYLDDCHRRYDCAHCRA [S18D], the protein stability index amounted to 1.5. With SKPKTFQAYLDDCHRRYYCAHCRA [S18Y] the figure was 1.48; with SKPKTFQAYLDDCHRRYQCAHCRA [S18Q], 1.86. To SKPKTFQAYLDDCHRRYNCAHCRA [S18N] belongs 2.06. To SKPKTFQAYLDDCHRRYLCAHCRA [S18L] belongs 2.14; to SKPKTFQAYLDDCHRRYMCAHCRA [S18M], 2.73; to SKPKTFQAYLDDCHRRYWCAHCRA [S18W], 1.52. For the variant SKPKTFQAYLDDCHRRYTCAHCRA [S18T], the protein stability index was 2.37. With SKPKTFQAYLDDCHRRYECAHCRA [S18E] the figure was 1.52; with SKPKTFQAYLDDCHRRYFCAHCRA [S18F], 1.91. To SKPKTFQAYLDDCHRRYICAHCRA [S18I] belongs 2.37; to SKPKTFQAYLDDCHRRYGCAHCRA [S18G], 2.5. With SKPKTFQAYLDDCHRRYRCAHCRA [S18R] the figure was 2.56; with SKPKTFQAYLDDCHRRYPCAHCRA [S18P], 2.15; with SKPKTFQAYLDDCHYRYSCAHCRA [R15Y], 1.56. Turning to SKPKTFQAYLDDCHLRYSCAHCRA [R15L], the protein stability index is 2.01. To SKPKTFQAYLDDCHMRYSCAHCRA [R15M] belongs 1.68; to SKPKTFQAYLDDCHWRYSCAHCRA [R15W], 2.2. To SKPKTFQAYLDDCHTRYSCAHCRA [R15T] belongs 2.48; to SKPKTFQAYLDDCHVRYSCAHCRA [R15V], 1.57. With SKPKTFQAYLDDCHSRYSCAHCRA [R15S] the figure was 1.61; with SKPKTFQAYLDDCHNRYSCAHCRA [R15N], 2.79. On to SKPKTFQAYLDDCHPRYSCAHCRA [R15P], for which the protein stability index was 1.82. With SKPKTFQAYLDDCHKRYSCAHCRA [R15K] the figure was 2.15; with SKPKTFQAYLDDCHQRYSCAHCRA [R15Q], 1.65; with SKPKTFQAYLDDCHRMYSCAHCRA [R16M], 1.88. With SKPKTFQAYLDDCHRSYSCAHCRA [R16S] the figure was 1.59; with SKPKTFQAYLDDCHRGYSCAHCRA [R16G], 1.33; with SKPKTFQAYLDDCHREYSCAHCRA [R16E], 3.04. To SKPKTFQAYLDDCHRDYSCAHCRA [R16D] belongs 2.45; to SKPKTFQAYLDDCHRYYSCAHCRA [R16Y], 1.83; to SKPKTFQAYLDDCHRHYSCAHCRA [R16H], 2.3. As for SKPKTFQAYLDDCHRFYSCAHCRA [R16F], the protein stability index came to 1.76.

As for SKPKTFQAYLDDCHRTYSCAHCRA [R16T], the protein stability index amounted to 2.46. With SKPKTFQAYLDDCHRAYSCAHCRA [R16A] the figure was 1.76; with SKPKTFQAYLDDCHRLYSCAHCRA [R16L], 2.33. To SKPKTFQAYLDDCHRVYSCAHCRA [R16V] belongs 2.34; to SKPKTFQAYLDDCHRNYSCAHCRA [R16N], 1.45; to SKPKTFQAYLDDCHRPYSCAHCRA [R16P], 1.94.

For the variant SKPKTFQAYLDDCHRIYSCAHCRA [R16I], the protein stability index was 1.55.

Take SKPKTFQAYLDDCHRCYSCAHCRA [R16C]: the protein stability index came to 2.4.

Consider SKPKTFQAYLDDCHRQYSCAHCRA [R16Q], for which the protein stability index was found to be 2.5. With SKPKTFQAYLDDCHRKYSCAHCRA [R16K] the figure was 1.73.
